Results taken from article PMC8050316, “Tissue plasminogen activator is a ligand of cation-independent mannose 6-phosphate receptor and consists of glycoforms that contain mannose 6-phosphate” (Scientific Reports, 2021).
Values belong to the molecule of their own block, whether it stands above or below them.

Key:
[1] = target: bovine cation-independent mannose 6-phosphate receptor domains 1-15 (entire extracellular region) (bovine) (UniProt P08169); assay: SPR; bovine CI-MPR d1-15 amine coupled to a CM5 chip, tPA injected at various concentrations, 25 °C, response at equilibrium fit with a one site specific binding model
[2] = target: human cation-independent mannose 6-phosphate receptor domains 1-5 (human) (UniProt P11717); assay: SPR; C-terminally biotinylated human CI-MPR d1-5 on a streptavidin chip; tPA injected at various concentrations, one site specific binding fit; tPA at 120 nM with 5 mM M6P or 5 mM G6P
[3] = target: human cation-independent mannose 6-phosphate receptor domains 1-15 (entire extracellular region) (human) (UniProt P11717); assay: SPR; biotinylated human CI-MPR d1-15 on a streptavidin-coupled CM5 chip, tPA injected at various concentrations, 25 °C, 40 µl/min for 2 min, response at equilibrium fit with a one site specific binding model
[4] = target: bovine cation-independent mannose 6-phosphate receptor domains 1-15 (entire extracellular region) (bovine) (UniProt P08169); assay: SPR; bovine CI-MPR d1-15 amine coupled; mock- or phosphatase-treated proteins injected in 10 mM HEPES, 150 mM sodium acetate, 5 mM β-glycerophosphate, 0.005% polysorbate-20, pH 7.4; tPA at 80 nM with 5 mM M6P, 5 mM G6P or no inhibitor
[5] = target: T1, bovine cation-independent mannose 6-phosphate receptor domains 1-15 (entire extracellular region) (bovine, UniProt P08169 47-2296); assay: SPR; recombinant tPA, native tPA or β-glucuronidase amine coupled; bovine CI-MPR d1-15 at 20 nM injected after preincubation with M6P, G6P or αMeMan (0.1, 1.0, 5.0 mM); conditions: both partners purified
T1 construct: cation-independent mannose 6-phosphate receptor (CI-MPR), bovine, domains 1-15, amino acids 47-2296; also called bovine CI-MPR d1-15; CI-MPR d1-15; source: Sf9, secreted, purified (Ni-NTA, Sephacryl S-300)
T1 sequence (P08169 47-2296): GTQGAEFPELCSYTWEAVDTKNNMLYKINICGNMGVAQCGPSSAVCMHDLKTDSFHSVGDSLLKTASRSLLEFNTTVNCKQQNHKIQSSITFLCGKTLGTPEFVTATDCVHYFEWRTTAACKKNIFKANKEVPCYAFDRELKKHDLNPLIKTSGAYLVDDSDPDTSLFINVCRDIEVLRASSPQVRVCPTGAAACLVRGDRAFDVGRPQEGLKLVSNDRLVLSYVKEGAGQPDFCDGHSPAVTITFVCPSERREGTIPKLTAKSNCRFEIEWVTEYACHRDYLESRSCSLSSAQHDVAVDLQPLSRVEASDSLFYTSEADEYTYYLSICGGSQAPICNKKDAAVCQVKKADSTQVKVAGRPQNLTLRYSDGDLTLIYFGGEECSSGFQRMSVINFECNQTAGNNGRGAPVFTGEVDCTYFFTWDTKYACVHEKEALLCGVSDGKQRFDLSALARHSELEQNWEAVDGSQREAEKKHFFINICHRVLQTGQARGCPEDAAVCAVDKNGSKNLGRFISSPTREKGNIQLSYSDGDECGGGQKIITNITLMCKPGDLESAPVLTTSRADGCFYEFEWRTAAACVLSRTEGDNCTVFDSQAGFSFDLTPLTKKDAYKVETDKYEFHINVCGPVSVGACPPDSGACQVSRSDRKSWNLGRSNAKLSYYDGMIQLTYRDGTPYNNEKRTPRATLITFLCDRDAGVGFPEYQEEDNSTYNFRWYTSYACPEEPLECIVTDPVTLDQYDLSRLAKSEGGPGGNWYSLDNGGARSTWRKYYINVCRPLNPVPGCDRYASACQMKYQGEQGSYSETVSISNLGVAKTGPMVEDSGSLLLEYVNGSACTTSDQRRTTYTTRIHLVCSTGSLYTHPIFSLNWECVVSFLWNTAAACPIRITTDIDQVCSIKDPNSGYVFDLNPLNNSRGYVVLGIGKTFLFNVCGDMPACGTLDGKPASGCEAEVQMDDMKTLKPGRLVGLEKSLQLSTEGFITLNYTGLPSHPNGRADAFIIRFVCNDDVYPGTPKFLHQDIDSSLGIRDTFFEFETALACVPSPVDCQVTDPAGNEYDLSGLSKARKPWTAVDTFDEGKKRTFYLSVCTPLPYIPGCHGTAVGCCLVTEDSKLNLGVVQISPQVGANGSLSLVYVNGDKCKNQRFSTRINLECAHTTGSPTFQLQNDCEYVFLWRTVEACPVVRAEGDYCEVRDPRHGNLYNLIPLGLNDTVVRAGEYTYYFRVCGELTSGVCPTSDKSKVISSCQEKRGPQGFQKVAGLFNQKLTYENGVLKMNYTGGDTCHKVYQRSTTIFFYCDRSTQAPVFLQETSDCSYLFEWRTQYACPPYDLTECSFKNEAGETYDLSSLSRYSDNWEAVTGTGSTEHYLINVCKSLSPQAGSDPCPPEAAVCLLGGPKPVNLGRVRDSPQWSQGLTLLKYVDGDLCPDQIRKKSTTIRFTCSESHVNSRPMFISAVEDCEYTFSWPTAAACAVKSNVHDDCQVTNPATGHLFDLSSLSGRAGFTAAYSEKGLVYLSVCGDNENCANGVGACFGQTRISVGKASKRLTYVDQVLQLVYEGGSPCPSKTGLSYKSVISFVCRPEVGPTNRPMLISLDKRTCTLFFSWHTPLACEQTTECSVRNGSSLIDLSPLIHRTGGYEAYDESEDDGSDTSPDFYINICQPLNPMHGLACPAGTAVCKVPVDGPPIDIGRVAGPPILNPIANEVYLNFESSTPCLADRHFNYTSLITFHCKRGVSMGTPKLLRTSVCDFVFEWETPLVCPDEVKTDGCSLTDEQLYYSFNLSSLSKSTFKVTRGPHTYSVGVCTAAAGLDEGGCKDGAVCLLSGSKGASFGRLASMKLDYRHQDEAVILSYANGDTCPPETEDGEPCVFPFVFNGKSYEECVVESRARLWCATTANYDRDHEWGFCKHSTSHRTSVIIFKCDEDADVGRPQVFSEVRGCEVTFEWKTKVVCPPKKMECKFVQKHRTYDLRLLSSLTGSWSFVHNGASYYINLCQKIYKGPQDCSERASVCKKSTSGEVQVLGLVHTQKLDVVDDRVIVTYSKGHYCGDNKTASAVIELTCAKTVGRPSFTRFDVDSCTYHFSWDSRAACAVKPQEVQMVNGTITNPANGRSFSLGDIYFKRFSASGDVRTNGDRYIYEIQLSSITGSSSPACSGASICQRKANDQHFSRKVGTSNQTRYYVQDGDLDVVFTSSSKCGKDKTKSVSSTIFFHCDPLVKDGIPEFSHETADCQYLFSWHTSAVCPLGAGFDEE

Sequence of human cation-independent mannose 6-phosphate receptor domains 1-5 (human) (P11717 36-763): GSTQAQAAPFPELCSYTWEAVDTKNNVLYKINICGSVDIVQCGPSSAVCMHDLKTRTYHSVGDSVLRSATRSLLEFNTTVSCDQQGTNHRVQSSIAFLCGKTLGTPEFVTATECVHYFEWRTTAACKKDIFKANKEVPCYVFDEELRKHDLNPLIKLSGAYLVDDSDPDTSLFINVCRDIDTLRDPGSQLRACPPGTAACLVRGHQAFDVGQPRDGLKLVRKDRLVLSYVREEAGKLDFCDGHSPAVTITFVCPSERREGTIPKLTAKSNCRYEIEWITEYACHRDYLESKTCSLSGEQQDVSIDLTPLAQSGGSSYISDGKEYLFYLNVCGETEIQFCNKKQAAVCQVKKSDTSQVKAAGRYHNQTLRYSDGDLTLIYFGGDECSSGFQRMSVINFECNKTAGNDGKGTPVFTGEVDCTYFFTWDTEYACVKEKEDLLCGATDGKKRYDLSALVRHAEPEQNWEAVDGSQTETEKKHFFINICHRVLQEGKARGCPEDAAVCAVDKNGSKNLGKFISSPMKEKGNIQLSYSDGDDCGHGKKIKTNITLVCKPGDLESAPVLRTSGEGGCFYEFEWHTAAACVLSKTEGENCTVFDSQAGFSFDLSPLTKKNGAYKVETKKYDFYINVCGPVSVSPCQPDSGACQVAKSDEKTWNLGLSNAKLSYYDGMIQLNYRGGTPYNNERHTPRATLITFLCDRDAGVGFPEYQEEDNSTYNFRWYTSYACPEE
Sequence of bovine cation-independent mannose 6-phosphate receptor domains 1-15 (entire extracellular region) (bovine) (P08169 47-2296): as the sequence (P08169 47-2296) above

Kd [1]: 214 nM | Kd [2]: 155 nM | percent decrease in response at equilibrium with 5 mM G6P [2]: 21% | percent decrease in response at equilibrium with 5 mM M6P [2]: 39% | Kd [3]: 81 nM
Molecule: native tissue plasminogen activator isolated from a human melanoma cell line (enzyme)

percent decrease in response with 5 mM G6P [4]: 12% | percent decrease in response with 5 mM M6P [4]: 13%
Molecule: phosphatase-treated recombinant tissue plasminogen activator (enzyme)

Kd [1]: 108 nM | Kd [2]: 134 nM | percent decrease in response at equilibrium with 5 mM G6P [2]: 20% | percent decrease in response at equilibrium with 5 mM M6P [2]: 40% | Kd [3]: 23 nM | percent decrease in average response with 5 mM G6P [4]: 26% | percent decrease in average response with 5 mM M6P [4]: 55%
Molecule: recombinant human tissue plasminogen activator (Cathflo Activase, alteplase) (enzyme)

binding result [5]: binds
B1: human β-glucuronidase (enzyme, UniProt P08236 23-651, looked up)
chain: LQGGMLYPQESPSRECKELDGLWSFRADFSDNRRRGFEEQWYRRPLWESGPTVDMPVPSSFNDISQDWRLRHFVGWVWYEREVILPERWTQDLRTRVVLRIGSAHSYAIVWVNGVDTLEHEGGYLPFEADISNLVQVGPLPSRLRITIAINNTLTPTTLPPGTIQYLTDTSKYPKGYFVQNTYFDFFNYAGLQRSVLLYTTPTTYIDDITVTTSVEQDSGLVNYQISVKGSNLFKLEVRLLDAENKVVANGTGTQGQLKVPGVSLWWPYLMHERPAYLYSLEVQLTAQTSLGPVSDFYTLPVGIRTVAVTKSQFLINGKPFYFHGVNKHEDADIRGKGFDWPLLVKDFNLLRWLGANAFRTSHYPYAEEVMQMCDRYGIVVIDECPGVGLALPQFFNNVSLHHHMQVMEEVVRRDKNHPAVVMWSVANEPASHLESAGYYLKMVIAHTKSLDPSRPVTFVSNSNYAADKGAPYVDVICLNSYYSWYHDYGHLELIQLQLATQFENWYKKYQKPIIQSEYGAETIAGFHQDPPLMFTEEYQKSLLEQYHLGLDQKRRKYVVGELIWNFADFMTEQSPTRVLGNKKGIFTRQRQPKSAAFLLRERYWKIANETRYPHSVAKSQCLENSLFT
modifications: M6P on its N-linked glycans
notes: β-glucuronidase, human, lysosomal enzyme; also called mock-treated β-glucuronidase
